Measured values published in patent publication US20240336909.

What was measured:
[1] = target: AxCT mask27 EGFR EH104 L066 version 1
[2] = target: AxCT mask27 EpCAM H90.2 L040 version 1
[3] = target: AxCT mask27 EGFR EH104 L058 version 1
[4] = target: AxCT mask27 EGFR EH104 L059 version 1
[5] = target: AxCT mask27 EGFR EH104 L001 version 1
[6] = target: AxCT mask27 EGFR EH104 L068 version 1
[7] = target: AxCT mask27 EpCAM H90.2 L064 version 1
[8] = target: AxCT mask27 EGFR EH104 L070 version 1
[9] = target: AxCT mask27 EGFR EH104 L073 version 1
[10] = target: AxCT mask27 EpCAM H90.2 L043 version 1
[11] = target: AxCT mask27 EGFR EH104 L043 version 1
[12] = target: AxCT mask27 EGFR EH104 L071 version 1
[13] = target: AxCT mask27 EpCAM H90.2 NCLV
[14] = target: AxCT mask27 EGFR EH104 L067 version 1
[15] = target: AxCT mask27 EGFR EH104 L056 version 1
[16] = target: AxCT mask27 EGFR EH104 L055 version 1
[17] = target: AxCT mask27 EGFR EH104 L054 version 1
[18] = target: AxCT mask27 EGFR EH104 L060 version 1
[19] = target: AxCT mask27 EpCAM H90.2 L076 version 1
[20] = target: AxCT mask27 EpCAM H90.2 L060 version 1
[21] = target: AxCT mask27 EGFR EH104 L041 version 1
[22] = target: AxCT mask27 EpCAM H90.2 L041 version 1
[23] = target: AxCT mask27 EpCAM H90.2 L075 version 1
[24] = target: AxCT mask27 EpCAM H90.2 L061 version 1
[25] = target: AxCT mask27 EGFR EH104 L061 version 1
[26] = target: AxCT mask27 EpCAM H90.2 L073 version 1
[27] = target: AxCT mask27 EGFR EH104 L040 version 1
[28] = target: AxCT mask27 EGFR EH104 L065 version 1
[29] = target: AxCT mask27 EGFR EH104 L057 version 1
[30] = target: AxCT mask27 EGFR EH104 L069 version 1
[31] = target: AxCT mask27 EpCAM H90.2 L059 version 1
[32] = target: AxCT mask27 EpCAM H90 L001 version 1
[33] = target: AxCT mask27 EGFR EH104 L064 version 1
[34] = target: AxCT mask27 EGFR EH104 L062 version 1
[35] = target: AxCT mask27 EpCAM H90.2 L063 version 1
[36] = target: AxCT mask27 EGFR EH104 L063 version 1
[37] = target: AxCT mask27 EGFR EH104 L072 version 1

Protein | Percent cleavage [1] [%] | Percent cleavage [2] [%] | Percent cleavage [3] [%] | Percent cleavage [4] [%] | Percent cleavage [5] [%] | Percent cleavage [6] [%] | Percent cleavage [7] [%] | Percent cleavage [8] [%] | Percent cleavage [10] [%] | Percent cleavage [11] [%] | Percent cleavage [12] [%] | Percent cleavage [13] [%] | Percent cleavage [14] [%] | Percent cleavage [15] [%] | Percent cleavage [16] [%] | Percent cleavage [17] [%] | Percent cleavage [18] [%] | Percent cleavage [19] [%] | Percent cleavage [20] [%] | Percent cleavage [21] [%] | further results
Neutrophil Elastase (protein) IVGGRRARPHAWPFMVSLQLRGGHFCGATLIAPNFVMSAAHCVANVNVRAVRVVLGAHNLSRREPTRQVFAVQRIFENGYDPVNLLNDIVILQLNGSATINANVQVAQLPAQGRRLGNGVQCLAMGWGLLGRNRGIASVLQELNVTVVTSLCRRSNVCTLVRGRQAGVCFGDSGSPLVCNGLIHGIASFVRGGCASGLYPDAFAPVAQFVNWIDSIIQ | 9 | 9 | 9 | 15 | 34 | 19 | 32 | 11 | 0 | 7 | 26 | 0 | 32 | 14 | 9 | 23 | 10 | 6 | 7 | 0 | Percent cleavage [9]: 9%; Percent cleavage [22]: 0%; Percent cleavage [23]: 0%; Percent cleavage [24]: 14%; Percent cleavage [25]: 19%; Percent cleavage [26]: 10%; Percent cleavage [27]: 13%; Percent cleavage [28]: 10%; Percent cleavage [29]: 28%; Percent cleavage [30]: 22%; Percent cleavage [31]: 14%; Percent cleavage [32]: 44%; Percent cleavage [33]: 30%; Percent cleavage [34]: 8%; Percent cleavage [35]: 0%; Percent cleavage [36]: 9%; Percent cleavage [37]: 10%
MMP-2 (protein) YNFFPRKPKWDKNQITYRIIGYTPDLDPETVDDAFARAFQVWSDVTPLRFSRIHDGEADIMINFGRWEHGDGYPFDGKDGLLAHAFAPGTGVGGDSHFDDDELWTLGEGQVVRVKYGNADGEYCKFPFLFNGKEYNSCTDTGRSDGFLWCSTTYNFEKDGKYGFCPHEALFTMGGNAEGQPCKFPFRFQGTSYDSCTTEGRTDGYRWCGTTEDYDRDKKYGFCPETAMSTVGGNSEGAPCVFPFTFLGNKYESCTSAGRSDGKMWCATTANYDDDRKWGFCPDQGYSLFLVAAHEFGHAMGLEHSQDPGALMAPIYTYTKNFRLSQDDIKGIQELYGASPDIDLGTGPTPTLGPVTPEICKQDIVFDGIAQIRGEIFFFKDRFIWRTVTPRDKPMGPLLVATFWPELPEKIDAVYEAPQEEKAVFFAGNEYWIYSASTLERGYPKPLTSLGLPPDVQRVDAAFNWSKNKKTYIFAGDKFWRYNEVKKKMDPGFPKLIADAWNAIPDNLDAVVDLQGGGHSYFFKGAYYLKLENQSLKSVKFGSIKSDWLGC | 25 | 90 | 62 | 39 | 71 | 48 | 79 | 22 | 39 | 27 | 39 | 0 | 34 | 51 | 35 | 59 | 27 | 35 | 40 | 51 | Percent cleavage [23]: 0%; Percent cleavage [24]: 74%; Percent cleavage [25]: 43%; Percent cleavage [26]: 17%; Percent cleavage [27]: 60%; Percent cleavage [28]: 71%; Percent cleavage [29]: 47%; Percent cleavage [30]: 29%; Percent cleavage [31]: 55%; Percent cleavage [32]: 104%; Percent cleavage [33]: 63%; Percent cleavage [34]: 63%; Percent cleavage [35]: 36%; Percent cleavage [36]: 31%; Percent cleavage [37]: 73%
Cathepsin G (protein) IIGGRESRPHSRPYMAYLQIQSPAGQSRCGGFLVREDFVLTAAHCWGSNINVTLGAHNIQRRENTQQHITARRAIRHPQYNQRTIQNDIMLLQLSRRVRRNRNVNPVALPRAQEGLRPGTLCTVAGWGRVSMRRGTDTLREVQLRVQRDRQCLRIFGSYDPRRQICVGDRRERKAAFKGDSGGPLLCNNVAHGIVSYGKSSGVPPEVFTRVSSFLPWIRTTMRS | 0 | 0 | 0 | 8 | 0 | 0 | 0 | 0 | 0 | 0 | 0 | 0 | 0 | 0 | 0 | 0 | 0 | 0 | 0 | 0 | Percent cleavage [9]: 0%; Percent cleavage [22]: 0%; Percent cleavage [23]: 8%; Percent cleavage [24]: 0%; Percent cleavage [25]: 0%; Percent cleavage [26]: 0%; Percent cleavage [27]: 0%; Percent cleavage [28]: 0%; Percent cleavage [29]: 0%; Percent cleavage [30]: 12%; Percent cleavage [31]: 6%; Percent cleavage [32]: 0%; Percent cleavage [33]: 0%; Percent cleavage [34]: 0%; Percent cleavage [35]: 0%; Percent cleavage [36]: 0%; Percent cleavage [37]: 0%
